The record followed here is patent US20110064726A1 (published 2011).

Assay [1] addresses T1, human IgE (full length human immunoglobulin E) (human, UniProt P01854 1-546). The assay is described as follows: ELISA, immunoglobulin coated at 4 µg/mL, anti-human IgG2 detection. The protocol:
(§1) Wells were washed 3× with 150 μL wash buffer (0.05% Tween-20 (Sigma, Cat. No. P7949)/PBS) then blocked with 150 μL/well blocking buffer (2.5% BSA (Sigma, Cat. No. A7030)/PBS) for 2 hours at room temperature. Wells were washed 3× with 150 μL wash buffer/well. […] Antibodies were diluted in diluent buffer (PBS/1% BSA/0.05% Tween-20) and this was added to blank control wells (duplicate wells for each secondary antibody used). Antibodies were incubated for 2 hours at room temperature. Wells were washed 3× with 150 μL wash buffer/well. Binding of control antibodies to immunoglobulin was detected with anti-mouse IgG-HRP conjugate (Sigma, Cat. No. A4416) diluted 1:8000 in diluent buffer. 50 μL/well was added to control antibody and blank wells. Wells were incubated for 1 hour at room temperature, then washed 3× with 150 μL wash buffer/well. 50 μl OPD (Dako, Cat. No. […] Wells were incubated for 1 hour at room temperature then washed 3× with 150 μL wash buffer/well. Streptavidin-HRP (Amersham Bioscience, Cat. No. RPN 1231) diluted 1:2000 in diluent buffer was added to all wells and incubated for 45 minutes at room temperature. Wells were washed (3×150 μL wash buffer).
On the technique in general: In an ELISA, binding on a coated surface is turned into a signal by an enzyme label.

Assay [2] concerns the target T2, human IgA (human).
T2 construct: bought preparation coated on the ELISA plate
Described as above. The protocol: as §1

In assay [3] the target is T3, human IgG1 (human, UniProt P01857-1 1-330 = IgG part).
T3 construct: bought preparation coated on the ELISA plate; not shown: bought immunoglobulin, light chain not described
The description is as above. The method, then:
as §1

The target in assay [4] is T4, human IgG3 (human, UniProt P01860-1 1-377).
T4 construct: bought preparation coated on the ELISA plate; not shown: bought immunoglobulin, light chain not described
The description is as above. The protocol: as §1

Assay [5] has as its target T1, human IgE (full length human …). The assay is described as follows: serum free IgE depletion ELISA; DIN 0155, initial free IgE 93 ng/mL.
For assay [6] the target is unchanged. The assay is described as follows: serum free IgE depletion ELISA; DIN 0649, initial free IgE 93 ng/mL.
Assay [7] shares this target. The assay is described as follows: serum free IgE depletion ELISA; DIN 0284, initial free IgE 339 ng/mL.
Assay [8] has the same target. The assay is described as follows: serum free IgE depletion ELISA; DIN 0347, initial free IgE 221 ng/mL.
The target is the same in assay [9]. The assay is described as follows: serum free IgE depletion ELISA; DIN 0591, initial free IgE 152 ng/mL.
For assay [10] the target is unchanged. The assay is described as follows: serum free IgE depletion ELISA; DIN 0382, initial free IgE 2827 ng/mL.
The target is the same in assay [11]. The assay is described as follows: serum free IgE depletion ELISA; DIN 0748, initial free IgE 4609 ng/mL.
For assay [12] the target is unchanged. The assay is described as follows: serum free IgE depletion ELISA; DIN 0011 experiment 1, initial free IgE 555 ng/mL.
Assay [13] has the same target. The assay is described as follows: serum free IgE depletion ELISA; DIN 0011 experiment 2, initial free IgE 326 ng/mL.
The target is the same in assay [14]. The assay is described as follows: serum free IgE depletion ELISA; DIN 0321 experiment 1, initial free IgE 262 ng/mL.
Assay [15] shares this target. The assay is described as follows: serum free IgE depletion ELISA; DIN 0321 experiment 2, initial free IgE 265 ng/mL.
Assay [16] shares this target. The assay is described as follows: serum free IgE depletion ELISA; DIN 0451 experiment 1, initial free IgE 557 ng/mL.
Assay [17] shares this target. The assay is described as follows: serum free IgE depletion ELISA; DIN 0451 experiment 2, initial free IgE 534 ng/mL.
Assay [18] has the same target. The assay is described as follows: serum free IgE depletion ELISA; DIN 0623 experiment 1, initial free IgE 145 ng/mL.
Assay [19] shares this target. The assay is described as follows: serum free IgE depletion ELISA; DIN 0623 experiment 2, initial free IgE 133 ng/mL.
For assay [20] the target is unchanged. The assay is described as follows: serum free IgE depletion ELISA; DIN 0632 experiment 1, initial free IgE 532 ng/mL.
Assay [21] has the same target. The assay is described as follows: serum free IgE depletion ELISA; DIN 0632 experiment 2, initial free IgE 289 ng/mL.

T1 sequence (P01854 whole entry): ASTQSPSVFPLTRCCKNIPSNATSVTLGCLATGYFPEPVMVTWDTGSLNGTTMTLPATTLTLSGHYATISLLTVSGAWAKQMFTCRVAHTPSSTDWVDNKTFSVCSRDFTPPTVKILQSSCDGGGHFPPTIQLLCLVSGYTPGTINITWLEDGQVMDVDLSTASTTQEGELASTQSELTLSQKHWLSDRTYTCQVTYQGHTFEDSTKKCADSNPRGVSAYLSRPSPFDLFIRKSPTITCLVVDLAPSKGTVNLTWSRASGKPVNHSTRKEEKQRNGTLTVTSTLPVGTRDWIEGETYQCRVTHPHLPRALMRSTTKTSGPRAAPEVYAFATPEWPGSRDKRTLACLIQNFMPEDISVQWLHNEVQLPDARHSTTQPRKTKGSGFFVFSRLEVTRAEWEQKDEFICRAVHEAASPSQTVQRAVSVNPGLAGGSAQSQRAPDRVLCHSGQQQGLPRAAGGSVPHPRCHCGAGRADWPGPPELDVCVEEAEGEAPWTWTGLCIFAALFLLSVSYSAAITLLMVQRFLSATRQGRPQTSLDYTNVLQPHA
T3 sequence (P01857 other isoform, or with tags, fused parts or gaps): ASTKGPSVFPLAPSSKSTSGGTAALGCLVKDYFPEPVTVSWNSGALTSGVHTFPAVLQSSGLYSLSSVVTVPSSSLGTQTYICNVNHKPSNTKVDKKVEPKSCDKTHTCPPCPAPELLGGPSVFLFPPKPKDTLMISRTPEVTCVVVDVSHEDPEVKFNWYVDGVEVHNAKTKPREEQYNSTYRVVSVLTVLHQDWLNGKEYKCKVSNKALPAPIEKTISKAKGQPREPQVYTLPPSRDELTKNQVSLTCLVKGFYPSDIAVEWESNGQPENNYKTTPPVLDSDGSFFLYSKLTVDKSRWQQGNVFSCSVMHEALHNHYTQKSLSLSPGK
T4 sequence (P01860 other isoform, or with tags, fused parts or gaps): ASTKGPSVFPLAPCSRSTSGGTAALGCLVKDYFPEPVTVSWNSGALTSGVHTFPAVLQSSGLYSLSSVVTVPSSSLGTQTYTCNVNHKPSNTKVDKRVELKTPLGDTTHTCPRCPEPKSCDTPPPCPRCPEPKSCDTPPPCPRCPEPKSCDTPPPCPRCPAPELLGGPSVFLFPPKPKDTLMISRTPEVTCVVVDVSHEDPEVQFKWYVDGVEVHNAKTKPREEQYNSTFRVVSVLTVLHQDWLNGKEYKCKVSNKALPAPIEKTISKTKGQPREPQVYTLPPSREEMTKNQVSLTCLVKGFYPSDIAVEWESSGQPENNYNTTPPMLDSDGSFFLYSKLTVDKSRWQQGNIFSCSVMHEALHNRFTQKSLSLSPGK

B1: recombinant 5.948.1 (antibody, human IgG2, kappa, V domains shown)
VH: QVQLVQSGAEVKKPGASVKVSCKASGYTFTSYDINWVRQATGQGLEWMGWMDPNSGNTGYAQKFQGRVTMTRNTSISTAYMELSSLRSEDTAVYYCARGHYDSDGYYSFSGMDVWGQGTTVTVSS
VL: not shown
notes: human IgG2 kappa; two batches (762.8 µg/mL and 5.2 mg/mL) were tested; also called 5.948.1 (recombinant); 5.948.1 - Batch 1
As to B1, the A290 nm was 2.57 absorbance in assay [1], 0.04 absorbance in assay [2], 0.07 absorbance in assay [3] and 0.04 absorbance in assay [4]. Moreover, the IC25ng/mL is 1.81 µg/mL in [5]; 1.95 µg/mL in [6]; 2.45 µg/mL in assay [7]; 4.92 µg/mL in [8]; 2.35 µg/mL in assay [9]; 25 µg/mL in assay [10]. In addition, the IC25ng/mL worked out at 25.1 µg/mL in assay [11]; 3.3 µg/mL in [12]; 6.34 µg/mL in [13]; 1.34 µg/mL in [14]; 7.9 µg/mL in [15]; 11.6 µg/mL in assay [16]. In addition, the IC25ng/mL in assay [17] is 39.7 µg/mL; in assay [18], 0.5 µg/mL; in [19], 4.13 µg/mL; in assay [20], 8.91 µg/mL; in [21], 6.31 µg/mL.
